Measurements published in patent US9074002B2, “PTP1B inhibitors” (Cold Spring Harbor Laboratory, priority 2009, dated 2015).
“Also recorded” adds a separate entry of the source.

B1: scFv45: conformation-sensor scFv binding PTP1B-OX, SEQ ID NO: 26 and 78; expressed as intrabody (protein)
scFv: MKKTAIAIAVALAGFATVAQAALTQPSSVSANPGGTVKITCSGSSSAYGYGWYQQKSPGSAPVTVIYNNNKRPSNIPSRFSGSKSGSTGTLTITGVQAEDEAVYFCGSEDSSTDAIFGAGTTLTVLGQSSRSSTVTLDESGGGLQAPGGALSLVCKASGFTFSSYDMGWIRQAPGKGLEYVAGITDNGRYASYGSAVDGRATISRDNGQSSVRLQLNNLRAEDTGTYYCARDDGSGWTGNSIDAWGHGTEVIVSSTSGQAGQHHHHHHGAYPYDVPDYAS
B2: scFv57: scFv binding PTP1B-OX, SEQ ID NO: 27 and 90 (protein)
scFv: MKKTAIAIAVALAGFATVAQAALTQPSSVSANPGAFNKITCSGSSSAYGYGWNQQKSPGSAPVTVIYNNNKRPSNIPSRFSGSKSGSTGTLTITGDQDEDEDFYFCGSEYSSTDAIFGAGTTLTVLGQSSRSSTVTLDESGGGLQAPGGALSLVCKASGFTFSSYDMGWIPQAPGKGLEYVAGITDNGIYASYGSAVDGRATISRDNRQSSVKLQLNNLKADDTGTYYCARDDGSGWTGNSIDAWGHGTEVIVSSTSGQAGQHHHHHHGAYPYDVPDYAS

Target: T1, endogenous PTP1B-OX (Homo sapiens, UniProt P18031)
T1 construct: endogenous in cells; host or cells: 293T cells (transfected only with the scFv intrabody)
T1 sequence (P18031 1-435): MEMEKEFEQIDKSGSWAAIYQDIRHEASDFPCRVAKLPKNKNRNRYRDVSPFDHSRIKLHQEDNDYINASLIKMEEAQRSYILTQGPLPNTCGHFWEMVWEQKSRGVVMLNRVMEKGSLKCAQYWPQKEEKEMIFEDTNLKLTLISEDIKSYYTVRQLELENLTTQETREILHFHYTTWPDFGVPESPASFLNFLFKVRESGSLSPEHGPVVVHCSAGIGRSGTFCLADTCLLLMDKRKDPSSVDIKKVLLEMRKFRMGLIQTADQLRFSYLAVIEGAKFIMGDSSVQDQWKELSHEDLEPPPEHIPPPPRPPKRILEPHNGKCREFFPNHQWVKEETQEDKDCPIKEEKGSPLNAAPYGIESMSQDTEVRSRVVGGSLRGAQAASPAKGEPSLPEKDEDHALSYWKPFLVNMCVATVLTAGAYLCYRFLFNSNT
Test: Intrabody interaction in 293T cells treated with H2O2 (Ni-NTA pull down / anti-PTP1B immunoprecipitation)
Type: cell-based
Settings: 1 mM H2O2 5 minutes, FIGS. 11, 12
Summary of the method: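 293T cells transiently expressing HA-detected scFv intrabodies, serum-starved 16 h, then 1 mM H2O2 for 5 min or 20 mM NAC for 1 h at 37 °C (NAC lysates with 2 mM TCEP). Complexes from 1 mg lysate captured by Ni-NTA pull-down or anti-PTP1B (FG6) IP; PTP1B and intrabody detected by immunoblot.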

Row | Molecule | binding of intrabody to endogenous PTP1B-OX
1 | B1 | interaction between scFv45 and PTP1B-OX was observed; also recorded: co-pulldown of PTP1B-OX in the presence of H2O2
2 | B2 | bound to endogenous PTP1B-OX strongly
